Where a chain is given by its changes, count along the chain named.
Columns and labels:
[1] = target: fusion protein between subunit 9 of F0/F1-ATPase and DHFR
[2] = target: T1, hSIRT3-FLAG, full-length 44 kDa form
T1 chain: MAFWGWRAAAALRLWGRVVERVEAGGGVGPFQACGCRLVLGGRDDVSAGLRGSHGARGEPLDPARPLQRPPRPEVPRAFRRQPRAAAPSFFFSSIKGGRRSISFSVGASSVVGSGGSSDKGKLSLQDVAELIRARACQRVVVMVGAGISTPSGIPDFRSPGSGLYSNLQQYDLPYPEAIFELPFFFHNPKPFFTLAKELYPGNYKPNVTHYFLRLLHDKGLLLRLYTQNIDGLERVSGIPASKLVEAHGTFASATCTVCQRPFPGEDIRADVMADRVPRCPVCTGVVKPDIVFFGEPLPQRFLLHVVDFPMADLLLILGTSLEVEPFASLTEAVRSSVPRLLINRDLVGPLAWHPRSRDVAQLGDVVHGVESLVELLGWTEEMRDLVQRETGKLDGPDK

[3] = target: other hSIRT3 mutants targeting arginine residues at positions 133, 135, 139 and 158
[4] = target: T2, hSIRT3R99/100G-FLAG
T2 chain: T1 chain with R99G, R100G

B1: purified recombinant yeast MPP (protein)
chain 1: ARTDNFKLSSLANGLKVATSNTPGHFSALGLYIDAGSRFEGRNLKGCTHILDRLAFKSTEHVEGRAMAETLELLGGNYQCTSSRENLMYQASVFNQDVGKMLQLMSETVRFPKITEQELQEQKLSAEYEIDEVWMKPELVLPELLHTAAYSGETLGSPLICPRELIPSISKYYLLDYRNKFYTPENTVAAFVGVPHEKALELTEKYLGDWQSTHPPITKKVAQYTGGESCIPPAPVFGNLPELFHIQIGFEGLPIDHPDIYALATLQTLLGGGGSFSAGGPGKGMYSRLYTHVLNQYYFVENCVAFNHSYSDSGIFGISLSCIPQAAPQAVEVIAQQMYNTFANKDLRLTEDEVSRAKNQLKSSLLMNLESKLVELEDMGRQVLMHGRKIPVNEMISKIEDLKPDDISRVAEMIFTGNVNNAGNGKGRATVVMQGDRGSFGDVENVLKAYGLGNSSSSKNDSPKKKGWF
chain 2: SQIPGTRTSKLPNGLTIATEYIPNTSSATVGIFVDAGSRAENVKNNGTAHFLEHLAFKGTQNRSQQGIELEIENIGSHLNAYTSRENTVYYAKSLQEDIPKAVDILSDILTKSVLDNSAIERERDVIIRESEEVDKMYDEVVFDHLHEITYKDQPLGRTILGPIKNIKSITRTDLKDYITKNYKGDRMVLAGAGAVDHEKLVQYAQKYFGHVPKSESPVPLGSPRGPLPVFCRGERFIKENTLPTTHIAIALEGVSWSAPDYFVALATQAIVGNWDRAIGTGTNSPSPLAVAASQNGSLANSYMSFSTSYADSGLWGMYIVTDSNEHNVQLIVNEILKEWKRIKSGKISDAEVNRAKAQLKAALLLSLDGSTAIVEDIGRQVVTTGKRLSPEEVFEQVDKITKDDIIMWANYRLQNKPVSMVALGNTSTVPNVSYIEEKLNQ
- cleavage by MPP in vitro [1]: resulted in the appearance of digestion products similar to what has been previously reported
- cleavage by MPP in vitro [2]: led to its cleavage to a product of ˜28 KDa
- cleavage by MPP in vitro [3]: other mutants were unaffected
- cleavage by MPP in vitro [4]: showed abrogation of cleavage by MPP in vitro

Reference: US20040091953
